In PMC11428563:

Target: VEGF as named in the paper; reagent listed as Human VEGFR2 / KDR Protein, His Tag, Acrobiosystems KDR-H5227 (human) (UniProt P35968)
Experiment: BLI
Conditions: BLI (Octet R4, anti-penta-His HIS1K sensors): protein loaded in phosphate buffer pH 7.4 (PlGF 2.5 ug/mL, VEGF 10 ug/mL), aptamers 0-20 uM in 1X Sartorius …

Sequence of VEGF as named in the paper; reagent listed as Human VEGFR2 / KDR Protein, His Tag, Acrobiosystems KDR-H5227 (human) (P35968 20-764): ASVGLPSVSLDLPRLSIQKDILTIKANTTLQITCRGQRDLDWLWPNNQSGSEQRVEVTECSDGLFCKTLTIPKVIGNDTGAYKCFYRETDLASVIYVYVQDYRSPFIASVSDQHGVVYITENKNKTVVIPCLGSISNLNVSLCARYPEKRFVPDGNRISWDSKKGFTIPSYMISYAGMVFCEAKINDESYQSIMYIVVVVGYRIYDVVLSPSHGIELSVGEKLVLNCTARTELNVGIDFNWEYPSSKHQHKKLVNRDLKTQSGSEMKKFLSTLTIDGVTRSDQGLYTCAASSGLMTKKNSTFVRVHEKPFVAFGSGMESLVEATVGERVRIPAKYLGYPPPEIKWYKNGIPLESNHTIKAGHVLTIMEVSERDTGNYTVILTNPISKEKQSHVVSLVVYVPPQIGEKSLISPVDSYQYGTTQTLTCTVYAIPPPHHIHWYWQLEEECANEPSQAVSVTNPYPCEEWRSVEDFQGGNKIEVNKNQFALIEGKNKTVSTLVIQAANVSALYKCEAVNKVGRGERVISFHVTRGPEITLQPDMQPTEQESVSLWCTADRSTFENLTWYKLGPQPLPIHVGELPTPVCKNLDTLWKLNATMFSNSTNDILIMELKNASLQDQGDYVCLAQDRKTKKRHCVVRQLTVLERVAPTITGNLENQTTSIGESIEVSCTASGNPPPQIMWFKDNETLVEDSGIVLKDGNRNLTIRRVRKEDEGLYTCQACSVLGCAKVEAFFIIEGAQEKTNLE

| Sequence | Kd [nM] | Kd (kon 9.164e1 1/Ms, koff 4.362e-7 1/s) [nM] |
| --- | --- | --- |
| CGAAAACAC [VEGF-Apt2] | 0.467 | – |
| CGAAGGGAA [VEGF-Apt1] | 320000 | – |
| GAAAGGCGA [VEGF-Apt3] | – | 6.8 |
